Test results taken from patent US12564623B2, “Methods and compositions for treating cancer” (The University of Chicago, priority 2017, dated 2026).
Values belong to the molecule of their own block, whether it stands above or below them.

Columns and labels:
[1] = test system: MDA-MB-231 cells; assay: Cancer cell killing, Calcein AM staining; type: cell-based, human; details: for cancer cell killing in combination with neutrophil conditioned media: Neu-CM 4 μg/mL, DOX 0.3 μM or PTX 3 nM, 4h; for cancer cell killing activity of purified protein: increasing doses, 5h
Procedure: Approach to identify the factor(s) mediating selective killing. A quantitative cancer cell killing assay was developed to track the bioactive factor(s). MDA-MB-231 cells were treated with various doses of PMN media and cell viability was assessed by Calcein AM live cells fluorescence staining. […] (FIG. 3B) PMN media was passed through a 0.22 μm filter, and protein concentration and killing activity on MDA-MB-231 cancer cells was measured in both pre- and post-filter solutions. […] ELANE and ECP levels in PMN media pre- and post-filtration were quantified by mass spectrometry (spectral counts).
To determine if ELANE and/or ECP were responsible, the inventors (1) immuno-depleted ELANE or ECP from PMN media; (2) treated cancer or normal cells with purified native ELANE or ECP from commercial sources. (FIG. 6A) ELANE or ECP were depleted from PMN media by immunoprecipitation; depletion was confirmed by western blotting. PMN media pre-depletion=Orig. and post-depletion=FT. Non-specific IgG was used as a control. (FIG. 6B) MDA-MB-231 cells or human monocyte-derived macrophages (HMDMs) were treated with purified native ELANE or ECP at various doses for 24h, and killing was assessed by Calcein AM staining. (FIG. 6C) MDA-MB-231 cells and HMDMs were treated with levels of ELANE (0.25 μg/mL) or ECP (0.05 μg/mL) that were present in the PMN media, alone or in combination for 24 hrs, and killing was examined by Calcein AM staining.
High doses of ECP or ELANE can kill cancer cells. The inventors sought to determine whether adding purified human ECP (Lee Biosolutions), human ELANE (Abcam), human DEFA1 (Abcam), human ANXA6 (R&D Systems) or human CASP3 (Abcam) individually could kill cancer cells without killing non-cancer cells. Increasing doses of each protein were added to MDA-MB-231 cells for 5h or human monocyte-derived macrophages (HMDMs) for 24 h and cell viability was determined by Calcein-AM.
ELANE and ECP synergize to selectively kill cancer cells. MDA-MB-231 and human monocyte-derived macrophages (HMDMs) were treated with levels of ELANE (0.25 μg/mL) or ECP (0.05 μg/mL) that were present in the PMN media, alone or in combination for 24 hrs. killing was examined by Calcein AM staining.
Combining chemotherapeutics and neutrophil conditioned media enhances the killing of human triple negative breast cancer cells. MDA-MB-231 cells were treated with neutrophil conditioned media (Neu-CM; 4 μg/mL), doxorubicin (DOX; 0.3 μM), or paclitaxel (PTX; 3 nM) for 4h, individually or in combination, and cell viability was assessed by Calcein-AM.
(§1) Other serine proteases cleave the C-terminal domain of CD95, and the ability to cleave the C-terminal domain is associated with cancer cell killing. (FIG. 12A) Full length recombinanat CD95 protein was incubated with various serine proteases (human ELANE (80 nM), PR3 (80 nM), CSTG (80 nM), PPE (80 nM), mouse ELANE (80 nM), rat ELANE (500 nM), GZMB (80 nM), or Trypsin (250 nM)), or other types of proteases (CTSC (80 nM); or MMP7 (80 nM), MMP9 (80 nM), CTSD (80 nM) not shown) at 37° C. for 2 hours. Degradation was assessed by SDS-PAGE followed by coomassie blue staining. (FIG. 12B) MDA-MB-231 cancer cells were incubated with various proteases for 24 hrs. Cell viability was assessed by Calcein AM staining.
(FIG. 13A) MDA-MB-231 cancer cells were treated with various doses of purified native ELANE or purified native porcine pancreatic elastase (PPE) for 6 h, and killing was assessed by Calcein AM staining. (FIG. 13B). Purified native ELANE or purified native PPE was incubated with different concentrations of alpha-1-anti-trypsin (A1AT) for 15 mins. Catalytic activity was measured using a chromogenic substrate assay. Cancer cell killing capability was determined by treating MDA-MB-231 cancer cells with ELANE or PPE in the presence or absence of A1AT for 6h, followed by Calcein AM staining. (FIG. 13C) Catalytic activity was measured using a chromogenic substrate assay. […]

[2] = target: T1, CD95 (Homo sapiens, UniProt P25445); assay: Recombinant CD95 degradation, SDS-PAGE and coomassie blue; type: biochemical; set-up: Recombinant proteins (1 μg) corresponding to full length CD95 (FL-CD95); details: purified CD95
T1 sequence (P25445 26-335): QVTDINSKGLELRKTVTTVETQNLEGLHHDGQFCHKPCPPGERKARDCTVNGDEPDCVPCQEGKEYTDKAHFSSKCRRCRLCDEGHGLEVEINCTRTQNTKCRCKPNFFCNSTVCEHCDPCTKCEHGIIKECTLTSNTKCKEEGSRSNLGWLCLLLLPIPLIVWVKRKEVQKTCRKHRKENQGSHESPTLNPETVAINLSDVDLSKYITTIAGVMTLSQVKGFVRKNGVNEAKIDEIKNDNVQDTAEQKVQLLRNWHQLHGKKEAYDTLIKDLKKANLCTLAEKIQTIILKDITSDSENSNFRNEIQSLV
Procedure: ELANE lowers CD95 levels in cancer cells and reduced CD95 levels are associated with apoptosis. (FIG. 8A) Recombinant proteins (1 μg) corresponding to full length CD95 (FL-CD95), N-terminal domain of CD95 (amino acids 1-173; N-CD95), or C-terminal domain of CD95 (amino acids 157-320; C-CD95) were inbuated with ELANE (0.05 μg) or vehicle (Veh) for 2 hrs at 37° C. Degradation was assessed by SDS-PAGE followed by coomassie blue staining. […] (FIG. 8C) Cancer cells were treated with ELANE (50 nM) for 1 hr, fixed in 10% formalin, and stained with N- or C-terminal specific anti-CD95 antibodies (green). Hoechst 33342 solution was used for nuclear staining (blue). Images were taken under 40×.
ELANE selectively cleaves the C-terminal domain of CD95. The CD95 pathway is essential for the survival of a wide range of cancer cells, but largely dispensable for normal cell survival (Adachi et al., Nat. Genet., 1995; Karray et al., J. Immunol., 2004). CD95 function can be modulated by proteolysis (Strand et al., Oncogene, 2004). To test CD95 involvement in ELANE mediated cell killing ELANE (0.05 μg) was incubated with 1 μg recombinant human C-terminal (aa. 157-320) or N-terminal (aa. 1-173) CD95 for 2 hrs at 37° C. Degradation was assessed by SDS-PAGE followed by staining with coomassie blue. C-terminal domain cleavage. N-terminal domain cleavage. Cancer cells were treated with ELANE (50 nM) for 1 hr, fixed in 10% formalin, and stained with N- or C-terminal specific anti-CD95 antibodies. Hoechst 33342 solution was used for nuclear staining. Images were taken under 40×. […] Mel888 cancer cells were treated with ELANE (50 nM) for various times, and CD95 degradation was assessed by western blot analysis with a C-terminal specific anti-CD95 antibody.
as §1

[3] = target: T2, ELANE (Homo sapiens, UniProt P08246); assay: Anti-ELANE magnetic bead pull-down from neutrophil conditioned media, western blotting; type: binding; details: anti-ELANE antibody beads
T2 construct: incubated the neutrophil conditioned media with magnetic beads coupled to an anti-ELANE antibody; endogenous in cells; host or cells: human peripheral blood neutrophils from healthy donors (conditioned media)
T2 sequence (P08246 30-267): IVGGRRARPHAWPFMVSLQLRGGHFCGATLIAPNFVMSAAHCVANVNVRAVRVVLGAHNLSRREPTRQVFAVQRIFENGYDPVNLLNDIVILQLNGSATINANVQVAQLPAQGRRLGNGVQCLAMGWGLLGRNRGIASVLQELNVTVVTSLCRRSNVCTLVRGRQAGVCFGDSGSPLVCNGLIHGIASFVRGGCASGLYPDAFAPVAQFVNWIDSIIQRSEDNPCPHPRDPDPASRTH
From the text: Identification of ECP, ELANE, ANXA6, DEFA1, and CASP3 as candidate cancer cell killing proteins in the neutrophil conditioned media. Neutrophil conditioned media was obtained from 2 different donors (Donor 1 and Donor 2). […] To determine the identity of the proteins depleted by the 0.2 μm sterile filter, the inventors performed quantitative proteomics analysis on the conditioned media from each donor pre- and post-filter. Proteomics analysis identified 2000 proteins, 4 of which (ECP, ELANE, ANXA6, and DEFA1) were depleted in samples from both donors (G-test, p<0.05). The inventors explored the possibility that these proteins might interact with or complement one another. This hypothesis was tested using two approaches. First, the inventors incubated the neutrophil conditioned media with magnetic beads coupled to an anti-ELANE antibody and analyzed the supernatant (sup), wash, and eluent (elute) by western blotting.

Molecule: CC(=O)O[C@H]1C(=O)[C@@]2(C)[C@H]([C@H](OC(=O)c3ccccc3)[C@]3(O)C[C@H](OC(=O)[C@H](O)[C@@H](NC(=O)c4ccccc4)c4ccccc4)C(C)=C1C3(C)C)[C@]1(OC(C)=O)CO[C@@H]1C[C@@H]2O [paclitaxel, reference compound]
cancer cell killing in combination with neutrophil conditioned media [1]: enhanced cancer cell killing

Molecule: cathepsin G [CTSG]
cleavage of purified CD95 [2]: cleaved purified CD95 with an identical degradation pattern to ELANE | cancer cell killing by proteases [1]: killed cancer cells

binding to ELANE [3]: ELANE-binding proteins
Molecule: DEFA1: purified human DEFA1 (Abcam)
cancer cell killing activity of purified protein [1]: low amount of activity

Molecule: COc1cccc2c1C(=O)c1c(O)c3c(c(O)c1C2=O)C[C@@](O)(C(=O)CO)C[C@@H]3O[C@H]1C[C@H](N)[C@H](O)[C@H](C)O1 [doxorubicin, reference compound]
cancer cell killing in combination with neutrophil conditioned media [1]: enhanced cancer cell killing

B1: ANXA6: purified human ANXA6 (R&D Systems) (protein, UniProt P08133 2-673, looked up)
Annexin A6: AKPAQGAKYRGSIHDFPGFDPNQDAEALYTAMKGFGSDKEAILDIITSRSNRQRQEVCQSYKSLYGKDLIADLKYELTGKFERLIVGLMRPPAYCDAKEIKDAISGIGTDEKCLIEILASRTNEQMHQLVAAYKDAYERDLEADIIGDTSGHFQKMLVVLLQGTREEDDVVSEDLVQQDVQDLYEAGELKWGTDEAQFIYILGNRSKQHLRLVFDEYLKTTGKPIEASIRGELSGDFEKLMLAVVKCIRSTPEYFAERLFKAMKGLGTRDNTLIRIMVSRSELDMLDIREIFRTKYEKSLYSMIKNDTSGEYKKTLLKLSGGDDDAAGQFFPEAAQVAYQMWELSAVARVELKGTVRPANDFNPDADAKALRKAMKGLGTDEDTIIDIITHRSNVQRQQIRQTFKSHFGRDLMTDLKSEISGDLARLILGLMMPPAHYDAKQLKKAMEGAGTDEKALIEILATRTNAEIRAINEAYKEDYHKSLEDALSSDTSGHFRRILISLATGHREEGGENLDQAREDAQVAAEILEIADTPSGDKTSLETRFMTILCTRSYPHLRRVFQEFIKMTNYDVEHTIKKEMSGDVRDAFVAIVQSVKNKPLFFADKLYKSMKGAGTDEKTLTRIMVSRSEIDLLNIRREFIEKYDKSLHQAIEGDTSGDFLKALLALCGGED
cancer cell killing activity of purified protein [1]: could not kill cancer cells

B2: murine neutrophil elastase (protein, listed as Mus musculus)
chain: MALGRLSSRTLAAMLLALFLGGPALASEIVGGRPARPHAWPFMASLQRRGGHFCGATLIARNFVMSAAHCVNGLNFRSVQVVLGAHDLRRQERTRQTFSVQRIFENGFDPSQLLNDIVIIQLNGSATINANVQVAQLPAQGQGVGDRTPCLAMGWGRLGTNRPSPSVLQELNVTVVTNMCRRRVNVCTLVPRRQAGICFGDSGGPLVCNNLVQGIDSFIRGGCGSGLYPDAFAPVAEFADWINSIIRSHNDHLLTHPKDREGRTN
cleavage of purified CD95 [2]: cleaved purified CD95 with an identical degradation pattern to ELANE | cancer cell killing by proteases [1]: killed cancer cells

B3: proteinase 3 (protein, listed as Homo sapiens)
chain: MAHRPPSPALASVLLALLLSGAARAAEIVGGHEAQPHSRPYMASLQMRGNPGSHFCGGTLIHPSFVLTAAHCLRDIPQRLVNVVLGAHNVRTQEPTQQHFSVAQVFLNNYDAENKLNDVLLIQLSSPANLSASVATVQLPQQDQPVPHGTQCLAMGWGRVGAHDPPAQVLQELNVTVVTFFCRPHNICTFVPRRKAGICFGDSGGPLICDGIIQGIDSFVIWGCATRLFPDFFTRVALYVDWIRSTLRRVEAKGRP
cleavage of purified CD95 [2]: cleaved purified CD95 with an identical degradation pattern to ELANE | cancer cell killing by proteases [1]: killed cancer cells

binding to ELANE [3]: ELANE-binding proteins
B4: CASP3: purified human CASP3 (Abcam) (protein)
chain: MENTENSVDSKSIKNLEPKIIHGSESMDSGISLDNSYKMDYPEMGLCIIINNKNFHKSTGMTSRSGTDVDAANLRETFRNLKYEVRNKNDLTREEIVELMRDVSKEDHSKRSSFVCVLLSHGEEGIIFGTNGPVDLKKITNFFRGDRCRSLTGKPKLFIIQACRGTELDCGIETDSGVDDDMACHKIPVEADFLYAYSTAPGYYSWRNSKDGSWFIQSLCAMLKQYADKLEFMHILTRVNRKVATEFESFSFDATFHAKKQIPCIVSMLTKELYFYH
cancer cell killing activity of purified protein [1]: could not kill cancer cells
